Source: patent US20080075726A1 (VACCINEX, published 2008)

T1: recombinant murine IL-6 (murine, UniProt P08505 25-211)
T1 sequence (looked up): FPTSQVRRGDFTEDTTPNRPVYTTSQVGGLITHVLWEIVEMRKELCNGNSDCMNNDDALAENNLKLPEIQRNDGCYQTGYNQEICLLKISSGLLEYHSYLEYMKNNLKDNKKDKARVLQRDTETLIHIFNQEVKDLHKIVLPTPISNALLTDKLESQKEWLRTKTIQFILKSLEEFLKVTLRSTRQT

T2: recombinant rat IL-6 (rat, UniProt P20607 25-211)
T2 sequence (looked up): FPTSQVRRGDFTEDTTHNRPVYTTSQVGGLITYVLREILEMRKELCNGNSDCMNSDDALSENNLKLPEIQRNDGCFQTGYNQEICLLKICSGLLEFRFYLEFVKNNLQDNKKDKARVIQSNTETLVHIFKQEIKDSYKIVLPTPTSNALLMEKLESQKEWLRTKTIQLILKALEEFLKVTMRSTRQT

T3: natural monkey IL-6 from rhesus monkey serum (rhesus monkey, UniProt P51494 28-212, limits assumed)
T3 sequence (looked up): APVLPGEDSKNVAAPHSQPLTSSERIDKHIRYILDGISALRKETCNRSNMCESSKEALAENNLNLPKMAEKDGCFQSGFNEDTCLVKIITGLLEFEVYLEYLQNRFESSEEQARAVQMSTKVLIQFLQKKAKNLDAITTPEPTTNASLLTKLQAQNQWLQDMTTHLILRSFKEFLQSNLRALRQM


Tests used:
recombinant human IL-6 [1] = target: T4, recombinant human IL-6 (human, UniProt P05231 30-212, limits assumed); test: flow cytometry blocking assay: biotinylated rhIL-6 (12 ng/ml on the sheet; 12.5 ng/ml in paragraph 183) pre-incubated with the mAb, then U266 cells bearing IL-6 receptor added; cell-bound IL-6 shown with streptavidin-PE; readout % inhibition
T4 construct: also called rhIL6; human recombinant IL-6
Experimental: FcR-blocked U266 cells (about 250,000 cells) were then added and co-incubated for another 30 min on ice. […] After washing, the cells were analyzed by flow cytometry.

recombinant murine IL-6 = target: T1, recombinant murine IL-6; test: ELISA on coated murine IL-6; human mAbs detected with rabbit anti-human IgG-HRP; series 100, 50, 25, 12.5 ng/ml (antibody by paragraph 42; headed mIL-6 (ng/ml) on the sheet)
Experimental: (§1) For sample “0,” no antibody was added. […] Each column represents a mean of two experiments +/− standard deviation.
(§2) For experiments using human monoclonal antibodies, IgG1 Kappa (human myeloma IgG1; Sigma-Aldrich Co.) mAb was used as a control. Rabbit anti-human IgG-HRP (Dako) was added at a dilution of 1/10,000 at 100 μl/well for detection of mAbs. […] For pAbs, Streptavidin-HRP (Prozyme) was added for detection at 100 μl/well. Antibodies were applied at concentrations of 12.5, 25, 50, and 100 ng/ml.

recombinant human IL-6 [2] = target: T4, recombinant human IL-6; test: competition ELISA, rhIL-6 in solution against captured IL-6
Experimental: (§3) Briefly, plates were coated with 2 μg/ml of mBE4 capture antibody in coating buffer, 100 μl per well. The plates were incubated overnight. Next, the plates were washed 3 times and tapped dry. The plates were then blocked with 200 μl per well of Assay Diluent or 10% FBS in PBS and incubated for 2 hours. […] The reaction was left at RT for 3-4 hours. […] Next, the plates were washed 3 times and tapped dry. […] The plates were incubated for 1-2 hours. The plates were washed 3 times and tapped dry. […] The plates were incubated at RT for 2 hours. (Therefore, any unbound mAb at this point will be measured by ELISA). Plates were then washed 5 times and tapped dry. 100 μl of detection Ab goat anti-human IgG F(ab)′2-HRP (Jackson lab) was added at 1:20,000 dilutions or 1:40,000 dilutions (depending on lot) and the plates were incubated for 1-2 hours. The plates were washed 7 times and tapped dry. Next, the Developer Substrate (equal parts of each reagent in the kit) was pre-mixed and allowed to warm to room temperature before use. Then 100 μl of Developer was added to each well. The plates were allowed to develop for 15 minutes un-sealed in a drawer in the dark. Finally, developing was stopped by adding 100 μl of 2N H₂SO₄ to each well and plates were read as Endpoint at 450 nm-[…].

recombinant human IL-6 [3] = target: T4, recombinant human IL-6; test: competition ELISA, rhIL-6 in solution against captured IL-6 (Affinity (nM) by IC50 ELISA)
Experimental: as §3
(§4) IC50 ELISA was performed as described above. Affinity analysis by Biacore was performed according to manufacturer protocols using HBS-EP buffer (Biacore AB).

recombinant rat IL-6 = target: T2, recombinant rat IL-6; test: ELISA on coated rat IL-6; human mAbs detected with rabbit anti-human IgG-HRP; series 100, 50, 25, 12.5 ng/ml (antibody by paragraph 42; headed mIL-6 (ng/ml) on the sheet)
Experimental: as §1, §2

recombinant human IL-6 [4] = target: T4, recombinant human IL-6; test: Biacore 2000, mAb captured on anti-human IgG CM5 chip, human IL-6 40-1.25 nM injected
Experimental: as §4

bovine serum albumin = bovine serum albumin (bovine, UniProt P02769 25-607); test: ELISA on a panel of control antigens (data not shown)
human insulin = human insulin (human, UniProt P01308 25-54; P01308 90-110, limits assumed); test: as above
human serum albumin = human serum albumin (human, UniProt P02768 25-609); test: as above
[5] = target: T3, natural monkey IL-6 from rhesus monkey …; test: competition ELISA (U-Cytech Monkey IL-6 kit): rhesus monkey serum (plasma on the sheet) at dilutions 1/10 to 1/640 with the antibody at 5 µg/ml as competitor of the kit's coated IL-6 antibody; a lower OD than the sample '0' means binding

Chain of human serum albumin (P02768 25-609 limits assumed): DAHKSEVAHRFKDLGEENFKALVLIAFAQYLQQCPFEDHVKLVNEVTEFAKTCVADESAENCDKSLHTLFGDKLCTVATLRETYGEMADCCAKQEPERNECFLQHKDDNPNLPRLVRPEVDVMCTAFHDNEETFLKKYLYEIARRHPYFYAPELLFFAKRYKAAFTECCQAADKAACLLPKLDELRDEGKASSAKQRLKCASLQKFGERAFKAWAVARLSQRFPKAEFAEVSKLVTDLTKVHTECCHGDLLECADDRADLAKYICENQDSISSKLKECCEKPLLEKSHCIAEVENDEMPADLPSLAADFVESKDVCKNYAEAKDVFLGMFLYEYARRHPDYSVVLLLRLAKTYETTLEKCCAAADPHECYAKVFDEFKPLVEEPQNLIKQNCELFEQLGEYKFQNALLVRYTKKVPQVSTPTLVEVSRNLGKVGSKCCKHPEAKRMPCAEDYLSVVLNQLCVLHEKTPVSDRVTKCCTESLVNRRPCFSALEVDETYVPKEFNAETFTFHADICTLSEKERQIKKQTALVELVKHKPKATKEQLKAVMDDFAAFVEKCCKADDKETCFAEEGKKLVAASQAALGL
Chain of bovine serum albumin (P02769 25-607 limits assumed): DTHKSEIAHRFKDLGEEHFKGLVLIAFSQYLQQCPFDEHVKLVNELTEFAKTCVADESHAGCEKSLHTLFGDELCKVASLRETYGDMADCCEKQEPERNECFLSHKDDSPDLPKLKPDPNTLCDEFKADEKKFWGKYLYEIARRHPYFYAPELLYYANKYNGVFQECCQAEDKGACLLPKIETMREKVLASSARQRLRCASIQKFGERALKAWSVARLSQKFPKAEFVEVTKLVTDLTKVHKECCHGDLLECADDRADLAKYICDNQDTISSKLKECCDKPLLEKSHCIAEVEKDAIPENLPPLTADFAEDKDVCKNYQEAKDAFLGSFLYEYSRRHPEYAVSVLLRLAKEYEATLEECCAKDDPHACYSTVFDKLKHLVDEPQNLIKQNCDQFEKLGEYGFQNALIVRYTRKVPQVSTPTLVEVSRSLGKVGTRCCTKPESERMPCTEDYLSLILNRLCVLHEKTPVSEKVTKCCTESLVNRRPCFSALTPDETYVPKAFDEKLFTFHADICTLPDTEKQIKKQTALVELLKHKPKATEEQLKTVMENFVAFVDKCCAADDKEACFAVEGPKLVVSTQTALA
Chain of human insulin (P01308 25-54 limits assumed, chain 1 of 2): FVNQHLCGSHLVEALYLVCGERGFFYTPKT
Chain of human insulin (P01308 90-110 limits assumed, chain 2 of 2): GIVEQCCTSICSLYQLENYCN

| Binder | IC50 (read off the curve) (recombinant human IL-6 [1]) | IC50 (recombinant human IL-6 [2]) | IC50 (recombinant human IL-6 [3]) | binding result (recombinant rat IL-6) | Kd (recombinant human IL-6 [4]) | binding result (bovine serum albumin) | binding result (human insulin) | binding result (human serum albumin) | binding result [5] | binding result (recombinant murine IL-6) |
| --- | --- | --- | --- | --- | --- | --- | --- | --- | --- | --- |
| mAb 416 (antibody, V domains shown) VH: QVTLKESGPTLVKPTQTLTLTCSFSGFSLSTSGVGVGWVRQPPGKALEWLAFIFWDDDKYYSPSLESRLTITKDTSKNQVVLTMTNMDPVDTATYYCARSYDDYLYYALDYWGQGTLVT VL: DIQMTQSPSSLSAFVGDGVTMTCWASQSINDYLNWYHQRPGEAPELLVFAASNLQIGVPSRFRGSGSETYFTLTINSLQPEDSGTYFCQNGHSFPLTFGGGTKLEI |  | 600 pM | 56 pM |  | 300 pM |  |  |  |  |  |
| mAb 1259 (antibody, V domains shown) VH: QVTLKESGPTLVKPTQTLTLTCSFSGFSLSTSGVGVGWVRQPPGKALEWLAFIWWDDDKYYSPSLESRLTITKDTSKNQVVLTMTNMDPVDTATYYCARSADDYLYYSFDTWGQGTLVT VL: DIQMTQSPSSLSAFVGDGVTMTCWASQSINDYLNWYHQRPGEAPELLVFAASNLQIGVPSRFRGSGSETYFTLTINSLQPEDSGTYFCQNGHSFPLTFGGGTKLEI |  | 28 pM | 28 pM |  | 93 pM |  |  |  |  |  |
| mAb 926 (antibody, human IgG1, kappa, V domains shown) VH: QVTLKESGPTLVKPTQTLTLTCSFSGFSLSTSGVGVGWVRQPPGKALEWLAFIFWDDDKYYSPSLESRLTITKDTSKNQVVLTMTNMDPVDTATYYCARSADDYLYYALDYWGQGTLVTVSS VL: DIQMTQSPSSLSAFVGDGVTMTCWASQSINDYLNWYHQRPGEAPELLVFAASNLQIGVPSRFRGSGSETYFTLTINSLQPEDSGTYFCQNGHSFPLTFGGGTKLEIKR |  | 70 pM | 33 pM | no binding (tested: 100 ng/ml) | 130 pM |  |  |  |  | no binding (tested: 100 ng/ml (Ab: 0.1 µg/ml in the title)) |

Second part, led by results:

| IC50 (read off the curve) (recombinant human IL-6 [1]) | IC50 (recombinant human IL-6 [2]) | IC50 (recombinant human IL-6 [3]) | binding result (recombinant rat IL-6) | Kd (recombinant human IL-6 [4]) | binding result (bovine serum albumin) | binding result (human insulin) | binding result (human serum albumin) | binding result [5] | Binder | binding result (recombinant murine IL-6) |
| --- | --- | --- | --- | --- | --- | --- | --- | --- | --- | --- |
| ~0.02 µg/mL |  |  |  |  |  |  |  |  | murine mAb B-E8 (antibody, V domains shown, Biotinylated in FIG. 16., Murine anti-IL-6 antibody from which the human mAbs were derived; also called Elsilimomab) VH: QVTLKESGPGILKPSQTLSLTCSFSGFSLSTSGMGVGWIRQPSGKGLEWLAHIWWDDDKYYNPSLKSQLTISKDTSRNQVFLKITSVDTADTATYYCARSYDDYLYYALDYWGQGTSVTVSS VL: DIVMTQSPATLSVTPGDRVSLSCRASQSISDYLHWYQQKSHESPRLLIKSVSQSISGIPSRFSGSGSGSDFTLSINSVEPEDVGVYYCQNGHSFPLTFGAGTKLELK |  |
| ~0.02 µg/mL | 500 pM | 10 pM | no binding (tested: 100 ng/ml) | 20 pM |  |  |  |  | mAb 88 (chimeric B-E8 control antibody) (antibody, V domains shown, Biotinylated in FIG. 16., Chimeric form of murine B-E8; also called control mAb 88) VH: QVTLKESGPGILKPSQTLSLTCSFSGFSLSTSGMGVGWIRQPSGKGLEWLAHIWWDDDKYYNPSLKSQLTISKDTSRNQVFLKITSVDTADTATYYCARSYDDYLYYALDYWGQGTSVTVSS VL: DIVMTQSPATLSVTPGDRVSLSCRASQSISDYLHWYQQKSHESPRLLIKSVSQSISGIPSRFSGSGSGSDFTLSINSVEPEDVGVYYCQNGHSFPLTFGAGTKLELK | no binding (tested: 100 ng/ml (Ab: 0.1 µg/ml in the title)) |
|  | 31 pM | 31 pM |  | 72 pM |  |  |  |  | mAb 1338 (antibody, V domains shown) VH: QVTLKESGPTLVKPTQTLTLTCSFSGFSLSTSGVGVGWVRQPPGKALEWLAFIWWDDDKYYSPSLESRLTITKDTSKNQVVLTMTNMDPVDTATYYCARSADDYLYYSFDTWGQGTLVT VL: DIQMTQSPSSLSAFVGDGVTMTCWASQSINDYLNWYHQRPGEAPELLVFAASNLQIGVPSRFRGSGSETYFTLTINSLQPEDSGTYFCQSGHSFPLTFGGGTKLEI |  |
|  | 26 pM | 26 pM | no binding (tested: 100 ng/ml) | 71 pM | no binding | no binding | no binding | binds | mAb 1339 (antibody, human IgG1, kappa, V domains shown) VH: QVTLKESGPTLVKPTQTLTLTCSFSGFSLSTSGVGVGWVRQPPGKALEWLAFIWWDDDKYYSPSLESRLTITKDTSKNQVVLTMTNMDPVDTATYYCARSADDYLYYSFDTWGQGTLVTVSS VL: DIQMTQSPSSLSAFVGDGVTMTCWASQSINDYLNWYHQRPGEAPELLVFAASNLQIGVPSRFRGSGSETYFTLTINSLQPEDSGTYFCQNAHSFPLTFGGGTKLEIKR | no binding (tested: 100 ng/ml (Ab: 0.1 µg/ml in the title)) |
